Patent US8852954

Biological target: mouse IgG1 (subtype 1 IgG antibody) (Mus musculus) (UniProt P01868)
Assay: SPR
Settings: RNA with 5'-dA5 (1-5)

Q: How did the Kd (LNA at C6 G7 C35 G36, 3'-dT37, BIACORE 3000, 1:1 Langmuir) turn out when “AAAAACGCUGAAGAGAAGACGGAAGGAGACGAAGCGT [MIG-m034]” was run?
A: < 0.001 nM

Q: And the Kd (LNA at C6 G7 C35 G36, 3'-dT37, second measurement (Example 3), differs from Table 2)?
A: 0.634 nM

Q: For “AAAAACGCUGAAGAGAAGACGGAAGGAGACGAAGCGT [MIG-m042]”, which Kd (LNA at C6 G7 C35 G36, 2'-OMe U9, 3'-dT37, BIACORE 3000, 1:1 Langmuir) is on record?
A: < 0.001 nM

Q: Which Kd (DNA at G6 C7 G37 C38, BIACORE 3000, 1:1 Langmuir) does the source give for “AAAAAGCGCUGAAGAGAAGACGGAAGGAGACGAAGCGC [MIG-m036]” here?
A: 5.48 nM

Q: Which Kd (DNA at 6-9 and 35-38, BIACORE 3000, 1:1 Langmuir) does the source give for “AAAAAGCGCUGAAGAGAAGACGGAAGGAGACGAAGCGC [MIG-m037]” here?
A: 1.7 nM

Q: With “AAAAAGCGCUGAAGAGAAGACGGAAGGAGACGAAGCGC [MIG-m040]” as the sequence, how does the Kd (2'-OMe U10, BIACORE 3000, 1:1 Langmuir) read?
A: 0.411 nM

Q: “AAAAAGCGCUGAAGAGAAGACGGAAGGAGACGAAGCGC [MIG-m041]” was tested. Which Kd (DNA at 6-9 and 35-38, 2'-OMe U10, BIACORE 3000, 1:1 Langmuir) did it give?
A: < 0.001 nM

Q: For “AAAAAGCUGAAGAGAAGACGGAAGGAGACGAAGCT [MIG-m035]”, which Kd (LNA at G6 C7 G33 C34, 3'-dT35, BIACORE 3000, 1:1 Langmuir) is on record?
A: < 0.001 nM
